The results in this text go back to patent US20250154283A1 (published 2025).

Assay [1] has as its target T1, biotinylated human VWF cysteine knot (CK) domain construct (human, UniProt P04275 2724-2813, biotinylated in vitro (BirA) on the biotinylation tag; one N-glycan).
T1 construct: Expressed in HEK293 EBNA cells; disulfide-linked homodimer; also called human VWF CK; human VWF CK domain; not shown: in vitro biotinylation tag, HRV-3C site and 3 VWF residues before the CK domain
Briefly: SPR, scFv captured via anti-SV5, CK domain injected, pH 7.4, apparent Kd.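 Also: scFvs from crude yeast supernatants printed on an amine-coupled anti-SV5 lawn, Kd computed as koff over kon, likely overestimating affinity because the CK construct is dimeric.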

The target of assay [2] is T2, biotinylated cynomolgus monkey VWF cysteine knot (CK) domain construct (cynomolgus monkey, biotinylated in vitro (BirA) on the biotinylation tag; one N-glycan).
T2 construct: Expressed in HEK293 EBNA cells; disulfide-linked homodimer; also called cyno VWF CK; cyno VWF CK domain; not shown: in vitro biotinylation tag, HRV-3C site and 3 VWF residues before the CK domain
T2 chain: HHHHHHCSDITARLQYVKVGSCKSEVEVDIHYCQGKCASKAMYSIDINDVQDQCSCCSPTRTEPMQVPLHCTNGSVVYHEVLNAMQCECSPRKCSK
The assay is described as above.

The target of assay [3] is T1, biotinylated human VWF cysteine knot …. Briefly: SPR, scFv captured via anti-SV5, CK domain injected, pH 5.5, apparent Kd.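 Also: scFvs from crude yeast supernatants captured on chip-bound anti-SV5 antibody, Kd computed as koff divided by kon, dimeric CK construct likely makes affinity appear higher.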 Background: SPR reads the build-up and loss of mass on a sensor chip optically.
Text: Briefly, a sensor chip was activated and coupled with an anti-SV5 mouse monoclonal antibody using amine coupling. The soluble scFvs in crude yeast supernatants were printed on the anti-SV5 lawn. […] From the measured association (kₒₙ) and dissociation (koff) rate constants, an apparent equilibrium dissociation constant (Kd=koff/kₒₙ) was estimated. Due to the dimeric state of the CK construct and consequent possibility for simultaneous binding of captured scFv to both monomers in the CK dimer, the SPR setup was expected to overestimate the binding affinity.

B1: 69_Lib8_scFv (scFv)
scFv: EVQLVESGGGLVQPGRSLRLSCAASAFTFSNYDMHWVRQAPGKGLEWVSAISGSGDTSDYADSVEGRFTISRDNAKNSLYLQMNSLRAEDTAVYYCVRASWYGTFFDYWGQGTLVTVSSSGGSTITSYNVYYTKLSSSGTDIQMTQSPSSLSASVGDRVTITCRASQSVSGWLAWYQQKPGKAPKLLIYGTSTLQSGVPSRFSGSGSGTDFTLTISSLQPEDVATYYCQQSYSAPYTFGGGTKVEIK
notes: VH-linker-VL; not shown: C-terminal 3xFLAG and SV5 tags
As for B1, the Kd stood at 3.7 nM in assay [1], 1.05 nM in assay [2] and 0.859 nM in assay [3].

B2: 76_Lib4_scFv (scFv)
scFv: QVQLQESGPGLVKPSQTLSLTCTVSGVSISNHYWSWIRQPPGKGLEWIGYIDESGSTDYNPSLKSRVTMSVDTSKNQFSLKVNSVTAADTAVYYCARVSWGYYAMDVWGQGTTVTVSSSGGSTITSYNVYYTKLSSSGTEIVMTQSPATLSLSPGERATLSCRASQGVSGHLAWYQQKPGQAPRLLIYETSKRATGIPARFSGSGSGTDFTLTISSLEPEDFAVYYCQQYNDYPLGFGGGTKVEIK
notes: as for B1
For B2, the values for the Kd in assay [1], in assay [2] and in assay [3] were 3.91 nM, 1.29 nM and 0.366 nM, respectively.

B3: 399_Lib1_scFv (scFv)
scFv: QVQLVQSGAEVKKPGASVKVSCKVSGITFTSDYIHWVRQAPGKGLEWMGGMNPYSNKAIYAQKFQGRVTMTEDTSTDTAYMELSSLKSEDTAVYYCATGGLRIAARTSYFDYWGQGTLVTVSSSGGSTITSYNVYYTKLSSSGTDIQMTQSPSSVSASVGDRVTITCRASMDIAGSLAWYQQKPGKAPKLLIYDTSFRATGVPSRFSGSGSGTDFTLTISSLQPEDFANYYCQQYDNPPRLTFGGGTKVEIK
notes: as for B1
Take B3: the Kd in assay [1] came to 2.62 nM; in assay [2], 2.05 nM; in assay [3], 0.127 nM.

B4: Lib4_P2_A10_scFv (scFv)
scFv: QVQLQESGPGLVKPSQTLSLTCTVSGASLGHQYWSWIRQPPGKGLEWIGYIDTSGSTDYNPSLKSRVTMSVDTSKNQFSLKVNSVTAADTAVYYCARVANYYYYMDVWGKGTTVTVSSSGGSTITSYNVYYTKLSSSGTEIVMTQSPATLSLSPGERATLSCRASQSVSNRLAWYQQKPGQAPRLLIYDASNRATGIPARFSGSGSGTDFTLTISSLEPEDFAVYYCQQYFITPSTFGGGTKVEIK
notes: as for B1
As to B4, the values for the Kd in assay [1], in assay [2] and in assay [3] were 2.7 nM, 0.733 nM and 3.36 nM, respectively.

B5: Lib1_P1_F10_scFv (scFv)
scFv: QVQLVQSGAEVKKPGASVKVSCKVSGYTFSSSGIHWVRQAPGKGLEWMGGIFPNFGTAIYAQKFQGRVTMTEDTSTDTAYMELSSLKSEDTAVYYCARESDFWSGSFTNWGQGTLVTVSSSGGSTITSYNVYYTKLSSSGTDIQMTQSPSSVSASVGDRVTITCRASRSIGNWLAWYQQKPGKAPKLLIYDAFNRASGVPSRFSGSGSGTDFTLTISSLQPEDFANYYCQQSYSTLPRYSFGGGTKVEIK
notes: as for B1
In the case of B5, the values for the Kd in assay [1], in assay [2] and in assay [3] were 4.97 nM, 1.5 nM and 15.3 nM, respectively.

B6: 15244_Lib8_scFv (scFv)
scFv: EVQLVESGGGLVQPGRSLRLSCAASGFTFADYDMHWVRQAPGKGLEWVSATSSHGVTTDYADSVEGRFTISRDNAKNSLYLQMNSLRAEDTAVYYCARGAWSGIAARQYIDYWGQGTLVTVSSSGGSTITSYNVYYTKLSSSGTDIQMTQSPSSLSASVGDRVTITCRASQTIGYWLAWYQQKPGKAPKLLIYDASVPESGVPSRFSGSGSGTDFTLTISSLQPEDVATYYCQQSYSYPLTFGGGTKVEIK
notes: as for B1
For B6, the Kd turned out to be 3.05 nM in assay [1], 1.91 nM in assay [2] and 1.05 nM in assay [3].

B7: Lib4_P2_A2_scFv (scFv)
scFv: QVQLVQSGAEVKKPGASVKVSCKVSGDTLSNYAIHWVRQAPGKGLEWMGGINPNAGTTIYAQKFQGRVTMTEDTSTDTAYMELSSLKSEDTAVYYCARDSSSWCPVGYYYYYMDVWGKGTTVTVSSSGGSTITSYNVYYTKLSSSGTDIQMTQSPSSVSASVGDRVTITCRASQSIGDFLAWYQQKPGKAPKLLIYDASHLQTGVPSRFSGSGSGTDFTLTISSLQPEDFANYYCQQTSTIPPTFGGGTKVEIK
notes: as for B1
For B7, the Kd in assay [1] was 2.05 nM; in assay [2] it was 0.305 nM; in assay [3], 0.604 nM.

B8: Lib6_P3_A4_scFv (scFv)
scFv: QVQLVQSGAEVKKPGASVKVSCKVSGDTLSNYAIHWVRQAPGKGLEWMGGINPNAGTTIYAQKFQGRVTMTEDTSTDTAYMELSSLKSEDTAVYYCARDSSSWCPVGYYYYYMDVWGKGTTVTVSSSGGSTITSYNVYYTKLSSSGTDIQMTQSPSSVSASVGDRVTITCRASQSIGDFLAWYQQKPGKAPKLLIYDASHLQTGVPSRFSGSGSGTDFTLTISSLQPEDFANYYCQQTSTIPPTFGGGTKVEIK
notes: as for B1
In the case of B8, the values for the Kd in assay [1], in assay [2] and in assay [3] were 4.97 nM, 3.46 nM and 0.52 nM, respectively.

B9: Lib4_P2_D1_scFv (scFv)
scFv: QVQLVQSGAEVKKPGASVKVSCKVSGDTLSNYAIHWVRQAPGKGLEWMGGINPNAGTTIYAQKFQGRVTMTEDTSTDTAYMELSSLKSEDTAVYYCARDSSSWCPVGYYYYYMDVWGKGTTVTVSSSGGSTITSYNVYYTKLSSSGTDIQMTQSPSSVSASVGDRVTITCRASQSIGDFLAWYQQKPGKAPKLLIYDASHLQTGVPSRFSGSGSGTDFTLTISSLQPEDFANYYCQQTSTIPPTFGGGTKVEIK
notes: as for B1
Take B9: the Kd in assay [1] is 5.02 nM; in assay [2], 0.517 nM; in assay [3], 0.984 nM.

B10: 4956_Lib1_scFv (scFv)
scFv: QVQLVQSGAEVKKPGASVKVSCKVSGYTLTSNYIHWVRQAPGKGLEWMGGFNPSSGSTIYAQKFQGRVTMTEDTSTDTAYMELSSLKSEDTAVYYCARTLYDFWSGYLDAFDIWGQGTMVTVSSSGGSTITSYNVYYTKLSSSGTDIQMTQSPSSVSASVGDRVTITCRASQNIRSSLAWYQQKPGKAPKLLIYAASNLEPGVPSRFSGSGSGTDFTLTISSLQPEDFANYYCQQYEDTPLTFGGGTKVEIK
notes: as for B1
As for B10, the Kd in assay [1] was 2.22 nM; in assay [2], 1.36 nM; in assay [3], 1.91 nM.

B11: 5662_Lib8_scFv (scFv)
scFv: EVQLVESGGGLVQPGRSLRLSCAASGFNFHNYDMHWVRQAPGKGLEWVSAIDISGQSTDYADSVEGRFTISRDNAKNSLYLQMNSLRAEDTAVYYCAREGWYGGVFDYWGQGTLVTVSSSGGSTITSYNVYYTKLSSSGTDIQMTQSPSSLSASVGDRVTITCRASQDIANWLAWYQQKPGKAPKLLIYGASESGVGVPSRFSGSGSGTDFTLTISSLQPEDVATYYCQQSLTMKTFGGGTKVEIK
notes: as for B1
For the molecule B11, the Kd was 4.31 nM in assay [1], 1.36 nM in assay [2] and 0.687 nM in assay [3].

B12: 965_Lib4_scFv (scFv)
scFv: QVQLQESGPGLVKPSQTLSLTCTVSGASFGDNYWSWIRQPPGKGLEWIGYIDTSGSSDYNPSLKSRVTMSVDTSKNQFSLKVNSVTAADTAVYYCARDALGYYYMDVWGKGTTVTVSSSGGSTITSYNVYYTKLSSSGTEIVMTQSPATLSLSPGERATLSCRASQGISGRLAWYQQKPGQAPRLLIYDASARASGIPARFSGSGSGTDFTLTISSLEPEDFAVYYCQQYGTSPYTFGGGTKVEIK
notes: as for B1
Turning to B12, the Kd was 2.79 nM in assay [1], 1.17 nM in assay [2] and 0.621 nM in assay [3].

B13: 11485_Lib1_scFv (scFv)
scFv: QVQLVQSGAEVKKPGASVKVSCKVSGAPSAAIIHWVRQAPGKGLEWMGGFTQIFGTAIYAQKFQGRVTMTEDTSTDTAYMELSSLKSEDTAVYYCAREGIGGHDAFDIWGQGTMVTVSSSGGSTITSYNVYYTKLSSSGTDIQMTQSPSSVSASVGDRVTITCRASQDISKNLAWYQQKPGKAPKLLIYKASKLESGVPSRFSGSGSGTDFTLTISSLQPEDFANYYCLHDYTYPPTFGGGTKVEIK
notes: as for B1
Consider B13, for which the Kd was 2.22 nM in assay [1], 3.16 nM in assay [2] and 1.82 nM in assay [3].

B14: Lib6_P3_A8_scFv (scFv)
scFv: EVQLVQSGAEVKKPGASVKVSCKASGYRFTNYDISWVRQAPGQGLEWMGGINPSSGITIYAQKLQGRGTMTTDPSTSTAYMELRSLRSDDTAVYYCARGAAYGDYLDYWGQGTLVTVSSSGGSTITSYNVYYTKLSSSGTESALTQPASVSGSPGQSITISCTGTNLGEKYVSWYQQHPGKAPKLMIYSTSQRPSGVSNRFSGSKSGNTASLTITGLQAEDEADYYCSSYTASSTPGLVFGGGTKLTVL
notes: as for B1
Regarding B14, the Kd was found to be 2.72 nM in assay [1], 0.435 nM in assay [2] and 0.872 nM in assay [3].

B15: 27_Lib4_scFv (scFv)
scFv: QVQLQESGPGLVKPSQTLSLTCTVSGASFGDHYWSWIRQPPGKGLEWIGYIDATGSIDYNPSLKSRVTMSVDTSKNQFSLKVNSVTAADTAVYYCARVASYYYYMDVWGKGTTVTVSSSGGSTITSYNVYYTKLSSSGTEIVMTQSPATLSLSPGERATLSCRASQSITGSYLAWYQQKPGQAPRLLIYGASDRAPGIPARFSGSGSGTDFTLTISSLEPEDFAVYYCQQYGSFPYTFGGGTKVEIK
notes: as for B1
As to B15, the Kd in assay [1] was found to be 2.85 nM; in assay [2] it was 0.656 nM; in assay [3], 0.443 nM.

B16: 4675_Lib4_scFv (scFv)
scFv: QVQLQESGPGLVKPSQTLSLTCTVSGFSLTSHPEGVNWIRQPPGKGLEWIGYIAHSGTTDYNPSLKSRVTMSVDTSKNQFSLKVNSVTAADTAVYYCARAYGDSDAFDIWGQGTMVTVSSSGGSTITSYNVYYTKLSSSGTEIVMTQSPATLSLSPGERATLSCRASQSIGRNLAWYQQKPGQAPRLLIYGASKRVTGIPARFSGSGSGTDFTLTISSLEPEDFAVYYCQQYSTWPTFGGGTKVEIK
notes: as for B1
For the molecule B16, the Kd is 4.26 nM in assay [1], 2.42 nM in assay [2] and 13.6 nM in assay [3].
